Results from patent US20230052680A1.

Columns and labels:
[1] = target: human FGFR2b (beta)-Fc (human) (UniProt P21802); experiment: SPR (Biacore T200); hFGFR2b-Fc amine-coupled to CM5 chip, antibody injected at 0-200 nM
[2] = target: human FGFR2b (beta)-Fc (human) (UniProt P21802); experiment: surface plasmon resonance (Biacore T200), hFGFR2b-Fc amine-coupled to a CM5 chip, antibody injected
[3] = target: human FGFR2b on cells (human) (UniProt P21802); experiment: flow cytometry on FGFR2b expressing KATOIII cells
[4] = target: recombinant human FGFR2b-Fc (murine Fc) (human) (UniProt P21802); experiment: ELISA, plate coated with 0.1 ug/ml human FGFR2b-Fc, anti-human IgG HRP detection
[5] = target: human FGFR2b on cells (human) (UniProt P21802); experiment: flow cytometry on KATOIII cells; sample name as printed 'KATOIII_36C 01nM_023.fcs' (no decimal point printed)
[6] = target: human FGFR2b on cells (human) (UniProt P21802); experiment: flow cytometry on KATOIII cells; sample name as printed 'KATOIII_36C 05nM_022.fcs' (no decimal point printed)
[7] = target: human FGFR2b on cells (human) (UniProt P21802); experiment: flow cytometry on KATOIII cells; sample name as printed 'KATOIII_36C 0004nM_025.fcs' (no decimal point printed)
[8] = target: human FGFR2b on cells (human) (UniProt P21802); experiment: flow cytometry on KATOIII cells; sample name as printed 'KATOIII_36C 002 nM_024.fcs' (no decimal point printed)
[9] = target: human FGFR2b on cells (human) (UniProt P21802); experiment: flow cytometry on KATOIII cells; sample name as printed 'KATOIII_36C 00009nM_026.fcs' (no decimal point printed)
[10] = target: human FGFR2b (beta)-Fc (human) (UniProt P21802); experiment: ELISA, plate coated with HuFGFR2b

| Binder | Kd [1] [pM] | Kd [2] [pM] | koff [2] [s⁻¹] | kon [2] [M⁻¹ s⁻¹] | EC50 [3] [pM] | EC50 (read off the curve) [4] [pM] | Mean : FITC-A [5] | Mean : FITC-A [6] | Mean : FITC-A [7] | Mean : FITC-A [8] | Mean : FITC-A [9] | EC50 (read off the curve) [10] [pM] |
| --- | --- | --- | --- | --- | --- | --- | --- | --- | --- | --- | --- | --- |
| Ab hu36-2 (antibody, human IgG1, V domains shown) VH: QVQLVQSGAEVKKPGSSVKVSCKASGYTFTSYNMHWVRQAPGQGLEWIGAIFPENGDTSYNQKFKGRATITADKSTSTAYMELSSLRSEDTAVYYCARGGFDYWGQGTTVTVSS VL: DIQMTQSPSSLSASVGDRVTITCKASQDVSTNVAWYQQKPGKAPKLLIFSASYRYTGVPSRFSGSGSGTDFTFTISSLQPEDIATYYCQQHYSSPYTFGQGTKLEIK | 189 | 187 | 2.39e-05 | 128000 |  |  |  |  |  |  |  |  |
| Ab 36c (antibody, V domains shown) VH: QPYLQQSGAELVRPGASVKMSCKASGYTFTSYNMHWVKQTPRQGLEWIGAIFPENGDTSYNQKFKGKATLTVDKSSSTAYMQLSSLTSEDSAVYFCARGGFDYWGQGTTLTVSS VL: DIVMTQSHKFMSTSVGDRVSITCKASQDVSTNVAWYQQKPGQSPKLLIFSASYRYTGVPDRFAGSGSGTDFTFTISSVQAEDLAVYYCQQHYSSPYTFGGGTKLDIK | 187 | 189 | 2.44e-05 | 129000 | 8000 | 300 | 455 | 1800 | 128 | 199 | 121 |  |
| Ab 36 (antibody, V domains shown) VH: QPYLQQSGAELVRPGASVKMSCKASGYTFTSYNMHWVKQTPRQGLEWIGAIFPENGDTSYNQKFKGKATLTVDKSSSTAYMQLSSLTSEDSAVYFCARGGFDYWGQGTTLTVSS VL: DIVMTQSHKFMSTSVGDRVSITCKASQDVSTNVAWYQQKPGQSPKLLIFSASYRYTGVPDRFAGSGSGTDFTFTISSVQAEDLAVYYCQQHYSSPYTFGGGTKLDIK |  |  |  |  |  |  |  |  |  |  |  | 200 |
